For the test, the target named is T1, ERα (Homo sapiens, UniProt P03372).
T1 construct: expressed in transfected cells; host or cells: SHM (Syrian hamster myocyte) cells
T1 sequence (P03372 1-595): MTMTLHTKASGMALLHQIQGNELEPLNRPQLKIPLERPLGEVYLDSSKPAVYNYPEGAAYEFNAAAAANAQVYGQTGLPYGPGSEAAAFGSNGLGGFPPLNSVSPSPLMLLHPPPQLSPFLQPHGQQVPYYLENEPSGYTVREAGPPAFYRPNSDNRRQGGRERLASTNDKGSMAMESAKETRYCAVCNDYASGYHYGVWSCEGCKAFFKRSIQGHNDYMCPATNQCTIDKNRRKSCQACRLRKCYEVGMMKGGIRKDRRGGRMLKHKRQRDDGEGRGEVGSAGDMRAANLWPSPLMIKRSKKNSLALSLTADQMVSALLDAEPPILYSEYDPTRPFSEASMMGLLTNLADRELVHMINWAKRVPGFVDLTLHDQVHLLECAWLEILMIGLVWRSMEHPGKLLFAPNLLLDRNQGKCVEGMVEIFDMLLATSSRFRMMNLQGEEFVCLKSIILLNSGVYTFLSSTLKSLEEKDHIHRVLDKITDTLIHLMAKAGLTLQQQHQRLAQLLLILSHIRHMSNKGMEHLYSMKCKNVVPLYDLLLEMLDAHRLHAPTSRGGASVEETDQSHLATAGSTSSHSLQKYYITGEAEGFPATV
Kind of test: ERα transactivation, 3xERE luciferase reporter in SHM cells. As to conditions: 3xERE promoter. It is filed as cell-based. As to the method: FIG. 4. PSF inhibit transactivation of PR but not estrogen receptor (ER). (A) SHM cells were transient cotransfected with PRA or PRB expression vectors with or without increasing dose (0.05, 0.1 and 0.2 μg) of His-PSF, together with 3×PRE (upper) or MMTV (lower) luciferase reporter vector. Four hours after transfection, culture medium was replaced with fresh DMEM containing 10 nM progesterone and the incubation continued for at least 30 hours. (B) SHM cells were transiently cotransfected with ERα or ERβ expression vector with (0.2 μg) or without His-PSF, together with 3×ERE luciferase reporter vector. Four hours after transfection, culture medium was replaced with fresh DMEM with (solid bar) or without (empty bar) 10 nM estrodial and incubation continued for at least 30 hours. Luciferase activity was measured and normalized by β-galatosidase activity. […]
For immunoprecipitation of the endogenous PR and PSF, T47D cells cultured in 150 mm dishes were lysed in 800 μl NETN buffer containing 150 mM NaCl plus protease inhibitor cocktail. […] Gels were treated with Enhancer (NEN, Boston, US) dried and analyzed by autoradiography. • Cell culture and transient transfection: SHM cells and 293T cells were maintained in DMEM plus 5% FCS (Sigma) as described before (22). […] Luciferase activity was determined by using the luciferin reagent (Promega) according to manufacture's protocol. […]

B1: polypyrimidine tract binding protein-associated splicing factor (protein)
chain: MSRDRFRSRGGGGGGFHRRGGGGGRGGLHDFRSPPPGMGLNQNRGPMGPGPGQSGPKPPIPPPPPHQQQQQPPPQQPPPQQPPPHQPPPHPQPHQQQQPPPPPQDSSKPVVAQGPGPAPGVGSAPPASSSAPPATPPTSGAPPGSGPGPTPTPPPAVTSAPPGAPPPTPPSSGVPTTPPQAGGPPPPPAAVPGPGPGPKQGPGPGGPKGGKMPGGPKPGGGPGLSTPGGHPKPPHRGGGEPRGGRQHHPPYHQQHHQGPPPGGPGGRSEEKISDSEGFKANLSLLRRPGEKTYTQRCRLFVGNLPADITEDEFKRLFAKYGEPGEVFINKGKGFGFIKLESRALAEIAKAELDDTPMRGRQLRVRFATHAAALSVRNLSPYVSNELLEEAFSQFGPIERAVVIVDDRGRSTGKGIVEFASKPAARKAFERCSEGVFLLTTTPRPVIVEPLEQLDDEDGLPEKLAQKNPMYQKERETPPRFAQHGTFEYEYSQRWKSLDEMEKQQREQVEKNMKDAKDKLESEMEDAYHEHQANLLRQDLMRRQEELRRMEELHNQEMQKRKEMQLRQEEERRRREEEMMIRQREMEEQMRRQREESYSRMGYMDPRERDMRMGGGGAMNMGDPYGSGGQKFPPLGGGGGIGYEANPGVPPATMSGSMMGSDMRTERFGQGGAGPVGGQGPRGMGPGTPAGYGRGREEYEGPNKKPRF
notes: expressed from transfected His-PSF vector or in vitro translated
As to B1, the “inhibitory effects on ERα” value is recorded as “not observed”.

The record behind these values is patent publication US20070286806A1, “Methods and Compositions for Modulating a Steroid Receptor” (Mount Sinai Hospital, priority 2004, published 2007).
